Measured values published in US20200319189A1.

Key:
[1] = target: AGP from plasma of patients with hepatocellular carcinoma (HCC-AGP) (human) (UniProt P02763); assay: reversed S2-ELISA: S2 coated at 5 µg/mL, plasma 1:50, detection with antibody 058
[2] = target: desialylated AGP (dsAGP) (human) (UniProt P02763); assay: reversed S2-ELISA: S2 coated at 5 µg/mL, dsAGP 2 µg/ml, detection with antibody 058
[3] = target: AGP from plasma of patients with hepatocellular carcinoma (HCC-AGP) (human) (UniProt P02763); assay: reversed S2-ELISA, HCC-plasma sample against a normal sample (background); 5 µg/ml S2 coating
[4] = target: AGP from plasma of patients with hepatocellular carcinoma (HCC-AGP) (human) (UniProt P02763); assay: standard lectin ELISA: antibody 058 coated, plasma 1:50, biotinylated S2 at 0.25 µg/mL for detection
[5] = target: desialylated AGP (dsAGP) (human) (UniProt P02763); assay: standard lectin ELISA: antibody 058 coated, dsAGP 2 µg/ml, biotinylated S2 at 0.25 µg/mL for detection

“S2-peptide (monovalent fucose-binding peptide; recombinant form of Aleuria aurantia lectin comprising only binding site 2) (from UniProt P18891 51-161)” was tested. Which signal to noise ratio [1] did it give?
The signal to noise ratio was 5.1.

What about the signal to noise ratio [2] of the same substance?
Its signal to noise ratio is 5.2.

And the signal to background ratio [3]?
The signal to background ratio was 10.

What about the signal to background ratio [4] of the same substance?
The signal to background ratio was 1.05.

And the signal to background ratio [5]?
Its signal to background ratio is 1.38.
